T1: CD276-His (Acro biosystems) (UniProt Q5ZPR3-2 29-245, limits assumed)
T1 construct: Bought detection reagent, detected with anti-His PE
T1 sequence (looked up): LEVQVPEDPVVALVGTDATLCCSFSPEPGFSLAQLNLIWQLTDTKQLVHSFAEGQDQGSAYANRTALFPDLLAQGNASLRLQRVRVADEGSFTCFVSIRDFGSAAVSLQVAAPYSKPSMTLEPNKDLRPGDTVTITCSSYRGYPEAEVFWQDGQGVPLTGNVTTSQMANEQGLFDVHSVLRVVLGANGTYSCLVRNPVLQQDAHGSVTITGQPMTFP


Assays:
[1] = biological target: T2, ROR1-Fc peptide (R&D System) (UniProt Q01973 30-403); assay: flow cytometry; transduced primary human T cells stained with ROR1-Fc, then anti-Fc Alexa Flour 647
T2 construct: Bought detection reagent (R&D Systems), detected with anti Fc-AF647; not shown: Fc part of the bought reagent, not described
T2 sequence (Q01973 30-403): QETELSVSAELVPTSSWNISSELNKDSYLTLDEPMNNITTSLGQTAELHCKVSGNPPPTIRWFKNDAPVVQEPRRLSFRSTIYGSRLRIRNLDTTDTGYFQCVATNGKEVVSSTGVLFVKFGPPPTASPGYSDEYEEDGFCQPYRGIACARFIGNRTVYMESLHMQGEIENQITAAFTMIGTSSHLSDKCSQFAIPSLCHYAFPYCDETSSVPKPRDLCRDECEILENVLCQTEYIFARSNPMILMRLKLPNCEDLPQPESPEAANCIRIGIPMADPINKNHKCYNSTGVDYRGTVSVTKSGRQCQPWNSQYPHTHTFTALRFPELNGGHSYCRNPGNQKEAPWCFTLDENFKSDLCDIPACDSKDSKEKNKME
Text: Half million CAR T cells were washed in cold AutoMACS buffer supplemented with 0.5% bovine serum albumin (Miltenyi Biotec, Bergisch Gladbach, Germany) and stained with CAR detection reagents. For ROR CAR, cells were stained with ROR1-Fc peptide (R&D System, Minneapolis, MN), followed by anti Fc-AF647 conjugate(Jackson ImmunoResearch, West Grove, PA). For MSLN CAR, cells were stained with MSLN-His (R&D System, Minneapolis, MN) […] anti-His-APC (Miltenyi Biotec). The 7-Aminoactinomycin D staining (7-AAD, BD Biosciences, San Jose, CA) was added to exclude dead cells. CD4 antibody labeled with VioBlue fluorochrome or CD8 antibody labeled with VioGreen fluorochrome was used to separate CD4 and CD8 population. Non-transduced cells (UTD) were used as a negative control. Cells were washed twice, resuspended in 200 μl running buffer, and acquired by flow cytometry. Flow cytometric analysis was performed on a MACSQuant® 10 Analyzer (Miltenyi Biotec), and data plots were generated using FlowJo software (Ashland, OR).
ROR1 and MSLN mono CARs and tandem CARs without mIL7 were included as control (FIG. 2A). CAR sequences were further incorporated into a third-generation lentiviral vectors and transduced into human primary T cells at MOI 40, to generate the ROR1 and/or MSLN CAR T cells under the control of the mammalian EF-1α promoter. Un-transduced T cells derived from same donor (UTD) were used as negative control. Surface expression of CARs with ROR1 binder on transduced T cells was measured by flow cytometry using ROR1-Fc, followed by staining with anti-Fc Alexa Flour 647. CARs with MSLN scFv surface expression was detected by MSLN-His followed by anti-His APC. […] Quantified CAR positive percentage and mean fluorescence intensity (MFI) of ROR1 binders (FIG. 2B, 2D) and MSLN binders (FIG. 2C, 2E) were plotted as bar figure.

[2] = biological target: T3, ROR1.Fc (Sino Biologicals) (UniProt Q01973 30-403); assay: flow cytometry of transduced primary human T cells at day 8; ROR1.Fc and anti-human Fc.AF647 are the listed reagents
T3 construct: not shown: Fc part of the bought reagent, not described
T3 sequence (Q01973 30-403): as above
Method: Flow cytometric analysis was performed as previously described (12, 15, 16). All cell staining reagents for flow cytometry were from Miltenyi Biotec, unless otherwise noted. These include anti-ROR1.AF647, mouse IgG1 control. APC, anti-CD45.PE, anti-CD8. Viogreen, anti-CD3.VioBlue, anti-CD45. VioBright FITC, anti-CD45RA. APC-Vio770, anti-CD62L.PE, anti-PD1.PE-Vio770, Streptavidin. PE (Miltenyi Biotec). Cell viability solution (7-AAD), BD Pharm Lysing buffer were purchased from BD Biosciences. Anti-ROR1.AF647 was from R&D systems. ROR1.Fc was from Sino Biologicals. Anti-human Fc.AF647 was from Jackson ImmunoResearch. Countbright absolute counting beads were from ThermoFisher Scientific. Anti-TGFβRII. Biotin was from Biolegend. Stained cells were analyzed using the MACSQuant Analyzer 10 flow cytometer (Miltenyi Biotec).

[3] = biological target: T1, CD276-His (Acro biosystems); assay: flow cytometry; transduced primary human T cells co-stained with ROR1-Fc and CD276-His, then anti-Fc and anti-His conjugates
Text: Half million CAR T cells were washed in cold AutoMACS buffer supplemented with 0.5% bovine serum albumin (Miltenyi Biotec, Bergisch Gladbach, Germany) and stained with CAR detection reagents. For ROR1 CAR, cells were stained with ROR1-Fc peptide (R&D System, Minneapolis, MN), followed by anti Fc-AF647 conjugate(Jackson ImmunoResearch, West Grove, PA). For CD276 CAR or CCR, cells were stained with CD276-His (Acro biosystems, Newark, De), followed by anti-His PE (Miltenyi Biotech). The 7-Aminoactinomycin D staining (7-AAD, BD Biosciences, San Jose, CA) was added to exclude dead cells. CD4 antibody labeled with VioBlue was used to separate CD4 and CD8 population. Non-transduced cells (UTD) were used as a negative control. Cells were washed twice, resuspended in 200 μl running buffer, and acquired by flow cytometry. […]
CD276 specific targeting-scFvs were first evaluated in CAR context in vitro, ROR1 CAR was included as control. […] Surface expression of CD276 CARs with ROR1 binder on transduced T cells was measured by flow cytometry using CD276-His, followed by staining with anti-His PE. ROR1 CAR expression was determined as previously described. […] The target specific cytotoxicity of CD276 and/or ROR1 CARs was measured by luciferase based overnight killing assy. […]

[4] = biological target: T4, FolR1-Fc peptide (Acro Biosystems) (UniProt P15328 25-233); assay: flow cytometry; transduced primary human T cells stained with FolR1-Fc, then anti-Fc Alexa Flour 647
T4 construct: Bought detection reagent, detected with anti Fc-AF647; not shown: Fc part of the bought reagent, not described
T4 sequence (P15328 25-233): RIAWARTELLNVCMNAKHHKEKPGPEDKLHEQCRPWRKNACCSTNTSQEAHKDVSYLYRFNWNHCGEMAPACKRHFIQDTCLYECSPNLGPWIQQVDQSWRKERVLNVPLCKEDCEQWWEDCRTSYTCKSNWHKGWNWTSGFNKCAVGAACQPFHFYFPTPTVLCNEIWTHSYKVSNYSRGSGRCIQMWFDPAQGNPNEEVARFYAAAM
Text: 0.32E6 CAR-T cells were washed in cold AutoMACS buffer supplemented with 0.5% bovine serum albumin (Miltenyi Biotec, Bergisch Gladbach, Germany) and stained with CAR detection reagents. For ROR CAR, cells were stained with ROR1-Fc peptide (R&D Systems, Minneapolis, MN) and FolR1 CAR were stained with FolR1-Fc peptide (Acro Biosystems, Newark, DE) followed by anti Fc-AF647 conjugate (Jackson ImmunoResearch, West Grove, PA). The 7-Aminoactinomycin D staining (7-AAD, BD Biosciences, San Jose, CA) was added to exclude dead cells. CD4 antibody labeled with VioBlue fluorochrome was used to separate CD4 and CD8 population. Processed mouse bone marrow and spleen were stained with human CD3 VioBlue and human CD45 FITC (Miltenyi Biotec) to determine the presence of CAR-T. To assess for memory phenotype, cells were stained with CD62L PE and CD45RA APC-Vio700 (Miltenyi Biotec). Non-transduced cells (UTD) were used as a negative control. Cells were washed twice, resuspended in 200 μl running buffer, and acquired by flow cytometry. […]
To test CAR-T functionality in vitro, ROR1 or FolR1 mono CARs with MMP-2, MMP-9, HPSE or PH-20 as booster elements were characterized. […] Surface expression of CARs with ROR1 or FolR1 binder on transduced T cells was measured by flow cytometry using ROR1-Fc or FolR1-Fc respectively, followed by staining with anti-Fc Alexa Flour 647.

Row | Binder | binding result [1] | binding result [2] | binding result [3] | binding result [4]
1 | D0290 ROR1 scFv9-IgG4 hinge-CD8TM-41BB-CD3ζ (other, CAR on transduced primary human T cells; also called CAR D0290; mono ROR1 CAR; not shown: IgG4 hinge, CD8 TM, 4-1BB, CD3ζ) QAAQVQLQQSGAEVKKPGSSVKVSCKASGGTFSSYAISWVRQAPGQGLEWMGWINPNSGGTNYAQRFQGRVTMTRDTSISTAYMELSRLRSDDTAVYYCASYNDAFDIWGQGTLVTVSSGGGGSGGGGSGGGGSNFMLTQPHSVSESPGKTVTISCTRSSGSIASNYVQWYQQRPGSAPTIVIYEDDQRPSGVPDRFSGSIDTSSNSASLTISGLQSEDEADYYCQSYEPGNGVFGGGTKVTVL | binds | – | – | –
2 | CAR LTG2527 ROR1 IgG4 CD8 BBz (other, CAR on transduced primary human T cells; also called ROR1 R12 -IgG4 hinge-CD8TM-41BB-CD3ζ; R12-ROR1 LTG2527) QEQLVESGGRLVTPGGSLTLSCKASGFDFSAYYMSWVRQAPGKGLEWIATIYPSSGKTYYATWVNGRFTISSDNAQNTVDLQMNSLTAADRATYFCARDSYADDGALFNIWGPGTLVTISSGGGGSGGGGSGGGGSELVLTQSPSVSAALGSPAKITCTLSSAHKTDTIDWYQQLQGEAPRYLMQVQSDGSYTKRPGVPDRFSGSSSGADRYLIIPSVQADDEADYYCGADYIGGYVFGGGTQLTVTGAAAESKYGPPCPPCPIYIWAPLAGTCGVLLLSLVITLYCKRGRKKLLYIFKQPFMRPVQTTQEEDGCSCRFPEEEEGGCELRVKFSRSADAPAYQQGQNQLYNELNLGRREEYDVLDKRRGRDPEMGGKPRRKNPQEGLYNELQKDKMAEAYSEIGMKGERRRGKGHDGLYQGLSTATKDTYDALHMQALPPR | – | binds | – | –
3 | CAR LTG2529 ROR1scFv9 IgG4 CD8 BBz (other, Chimeric antigen receptor on lentivirally transduced primary human T cells; The entry includes the N-terminal leader peptide; also called ROR1 CAR LTG2529; ROR1-LTG2529) QAAQVQLQQSGAEVKKPGSSVKVSCKASGGTFSSYAISWVRQAPGQGLEWMGWINPNSGGTNYAQRFQGRVTMTRDTSISTAYMELSRLRSDDTAVYYCASYNDAFDIWGQGTLVTVSSGGGGSGGGGSGGGGSNFMLTQPHSVSESPGKTVTISCTRSSGSIASNYVQWYQQRPGSAPTIVIYEDDQRPSGVPDRFSGSIDTSSNSASLTISGLQSEDEADYYCQSYEPGNGVFGGGTKVTVLAAAESKYGPPCPPCPIYIWAPLAGTCGVLLLSLVITLYCKRGRKKLLYIFKQPFMRPVQTTQEEDGCSCRFPEEEEGGCELRVKFSRSADAPAYQQGQNQLYNELNLGRREEYDVLDKRRGRDPEMGGKPRRKNPQEGLYNELQKDKMAEAYSEIGMKGERRRGKGHDGLYQGLSTATKDTYDALHMQALPPR | binds | binds | no binding | –
4 | CAR D0351 Farle CD8 BBz (other, FolR1 CAR (Farletuzumab scFv) on transduced primary human T cells, PGK promoter; also called Farle-CD8H&TM-41BB-CD3ζ; mono-FolR1 D0351) MEVQLVESGGGVVQPGRSLRLSCSASGFTFSGYGLSWVRQAPGKGLEWVAMISSGGSYTYYADSVKGRFAISRDNAKNTLFLQMDSLRPEDTGVYFCARHGDDPAWFAYWGQGTPVTVSSASTKGGGGGSGGGGSGGGGSDIQLTQSPSSLSASVGDRVTITCSVSSSISSNNLHWYQQKPGKAPKPWIYGTSNLASGVPSRFSGSGSGTDYTFTISSLQPEDIATYYCQQWSSYPYMYTFGQGTKVEIKRTAAATTTPAPRPPTPAPTIASQPLSLRPEACRPAAGGAVHTRGLDFACDIYIWAPLAGTCGVLLLSLVITLYCKRGRKKLLYIFKQPFMRPVQTTQEEDGCSCRFPEEEEGGCELRVKFSRSADAPAYQQGQNQLYNELNLGRREEYDVLDKRRGRDPEMGGKPRRKNPQEGLYNELQKDKMAEAYSEIGMKGERRRGKGHDGLYQGLSTATKDTYDALHMQALPPR | – | – | – | binds
5 | CAR D0233 MSLN M1-4S ROR1 scFv9 IgG4 CD8 BBz (other, Tandem CAR on transduced primary human T cells; also called MSLN-ROR1 scFv9-IgG4 hinge-CD8TM-41BB-CD3ζ; tandem CAR D0233) EVQLVQSGGGLVQPGGSLRLSCAASGFTFDDYAMHWVRQAPGKGLEWVSGISWNSGSIGYADSVKGRFTISRDNAKNSLYLQMNSLRAEDTALYYCAKDLSSVAGPFNYWGQGTLVTVSSGGGGSGGGGSGGGGSSSELTQDPAVSVALGQTVRITCQGDSLRSYYASWYQQKPGQAPVLVIYGKNNRPSGIPDRFSGSSSGNTASLTITGAQAEDEADYYCNSRDSSGNHLVFGGGTQLTVLGGGGGSGGGGSGGGGSGGGGSGGGGSQAAQVQLQQSGAEVKKPGSSVKVSCKASGGTFSSYAISWVRQAPGQGLEWMGWINPNSGGTNYAQRFQGRVTMTRDTSISTAYMELSRLRSDDTAVYYCASYNDAFDIWGQGTLVTVSSGGGGSGGGGSGGGGSNFMLTQPHSVSESPGKTVTISCTRSSGSIASNYVQWYQQRPGSAPTIVIYEDDQRPSGVPDRFSGSIDTSSNSASLTISGLQSEDEADYYCQSYEPGNGVFGGGTKVTVLAAAESKYGPPCPPCPIYIWAPLAGTCGVLLLSLVITLYCKRGRKKLLYIFKQPFMRPVQTTQEEDGCSCRFPEEEEGGCELRVKFSRSADAPAYQQGQNQLYNELNLGRREEYDVLDKRRGRDPEMGGKPRRKNPQEGLYNELQKDKMAEAYSEIGMKGERRRGKGHDGLYQGLSTATKDTYDALHMQALPPR | binds | – | – | –
